Experimental findings from a protein production outcome set (Wang et al. 2014) are described below.
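Further: failed if final PepcDB status was selected cloned or expressed and not failed if soluble or beyond.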

The series is described as follows: label from the status in PepcDB records.
As for “MRTTHSPATAAGRTLGRVLKAVLSLLVLAAAVAGLPLLLAWVTPAIWASSHDDLTHLLDRQDTGAAFLLLLVAVGWIGWAQFAFCAVRELIAQVGGRSWQAPRRLGASQRAAALLVGSILVLLPTSSALASDAHASPATTEARVPGQAPAPQTAEPDQTLPDSASTPASRTSYTVRATRPAQSLWGIAERELGDGERWREIAALNEGRTMVDGQVFRAHGFLQPGWQLEMPDTAAAAGGIRTQLGRAAPTAEGKNEHVVTVHSGDYLSKIAEEELGDGGEWPRLFKASRGKTQPDGLPAISDPDVIYAGQQVTVPGAQPDPHTPPRDGDNGDEAGSQETTPPATQKPDGKQKPGDDRRDEQAPAPGTTTAPAPESSAPSTPASRPAEQPGQEQGSPSATASATPRPGTSPAPSAAAPSATAEAPGSADSSPATTASETPPPAPAPAPASSPLNLRTVLGAGTLLAAAITGALALRRTLQRRRRTPGEKIAIASETSPAEAKLAAAAEPGGAARLDVALRTLAHQVAHEKAADLPPIRAARIGTRTVEVLPEGLARKPQAPFVAGQAGWWVLPAEAVLLDEETAREVPAPYPGLVTIGSTESGDLLLLNLPQVAALLLDGNPVHITEVCTSLALELGMSPWASEAEIVTIGFGEDLPQLLPTSRIAHMRHARHALRDLSERLLEAHQMPETSHQPYLLLCASTLDADLAWQFADIIDKAQHVPVTLIAPASAAAASFPDAEILNASLSKPQQFDYIGSEITVQRLEHAAYLQITTALAISAQPADPAEGPWEEVPHEPDTPQRPRPLDLAKPTQSGDGEKPVPASPFTAGTGDSEIYPALLAASTDPASLKLLPDPKAPGKAPAEPGTEPAEMTPDGRAPQKAAEATGRPQETPAAEAVGEDTQAQDLHAPEIRVLGPVEVTGVATTGHGPSQARLAALLYFRPGRSADVLCADMDPVSPWSTATLNARLQGLRRALGNDPAGNAYVPRRRSGDDPYELSEAVRCDWARFTQLAQRALPQGTAGLPDLEKALGLIRGRPFGTRPLPWAEPYQQEMSTRIIDVAHTVATYRTPTGPHHDLTAARQAIATGLDVDDSAELLYRDWMRIEHAAGNRAGLHTAITRIQDINRKIDCSLENETEQLINDLLGPTGGRARGR”, the protein production entry is given as “failed”.
Turning to “MNKMNNNILKKNDLSSQEESTHEIQDVLDQLDFYTYKIALFLDIDGTLADFKIDPLACFISKKILKSIQDIQSKGCLVSVITGRDYNSAQKLLADVSLPIAALHGLDIHINEKTQLNAINQNNQIFIQNFLCRLKEEIKYQPDLSIENKHHSIALHYRKNPDLYDIAKHIMNTVKKDNDEFKVIEGKYVFELIPKNSNKGSAIKTLLSYFDAEHYLSIFIGDDITDEDGFNMVNQLEGISIKVGSGKTVARFRLKNIEHVEEFLNLLSHHFPDSSTQITKKYGEQHV”, the protein production entry is “failed”.
As for “MGESGLTNEIDELHEEVTAVSAPGVKPPAQAGRRNIWLKVLISATAFYILLLVALLVTGNPNLFPSLVMVGNFTVPVAYVAFLYERKNFSRLKMPIVSLAFLYGGLVGIIATSFIGPLFITQFNPGDILAVGLVEEFAKILGVVVIARRRRHVLEMDGLILGAAVGMGFAALESTGYAFTAFLISNGSISAVLEVTLFRGLLAPLGHGTWTAILASVLFRESRDCCFRVNLRVIGAYLLVSILHAMWNGLSLVLAPFTGLGLGAIITWALVGFIGLYVLWRRWREAVRLKPVLLPERENV”, the entry is “failed”; as for “MNKMLYGWLLAACCGLPPAFAGDSVDVLAQPALHGPQALRAVLQDVARADARLVAVGERGVVLLSDDNGATWRQATAVPVGVSLTAVQFIDARNGWAVGHAGVVLHSQDGGEHWSVQLDGKRAAALEVQAAEAAADERRLAAAQRLLADGADKPLLALNFTDARNGLVVGAYGVAMRTDDGGRSWQSEIGRLPNGRGLHLYALARQGNQVYIAGEQGLLLRSRDGGEHYEALHGPYDGSYFAATVLPDGRLLLGGLRGSLFASDDGGDSFQALANPTPASINGLRVAGGQLLLANQAGMLLRSGLGAFAAQPVAVSDGLPLTAATTAADGSIVAVGMAGARRLEPSSLEHHHHHH”, “failed”; as for “MGRDYQSEALAEQHLREAHLLAPDHAAVLIGLYRFYFYKGRLGEALEVAQACLCKAARDNGLASDWRKVRRGDAEFSSYSAVLPRFYLFALKAYAYLQMRLGQLDEGHAAVEKLLELDPTDKVGAAVLLDVWRRIGLEHHHHHH”, “failed”.
For the sequence “MIDKREVLAPNRRSRQREEIVAEEKRYEVYFQPLLSGVEVKKSNEIKIVLPQQEYNRIEQGAKGTLRLQGTRYISFVPNSVAKLEHHHHHH”, the protein production entry was “not failed”.
As for “MSEGNRSRSRLLPSLLGLLILLSGLALLAGGIKLASLGGSLYYLLAGIGLALSGLLLLLGKRAALGLYALVLFASTVWALWEVGLDWWQLVPRLALWFVFGLLLWLPWFRRPLLADGPAPLGTAALGVAVVLAGAAAVGSQFTNPGQIVGRIDRDSGMTSTAPAMPDGDWQAYGRTEFGDRYSPLKQITPANVGQLEEAWRIRTGDLPTADDPLELTNENTPLKVNGMLYACTAHSKVLALDPDTGAEIWRFDPQIQSPVGFKGFAHMTCRGVSYYDEEQYARSDVGAPPAALSEAGKAVAASCPRRLFLPTADARLIAINADNGKVCEDFGVKGAVDLTAGIGPFTPGGYYSTSPAAVTRNLVIIGGHVTDNESTNEPSGVIRAFDVHDGKLVWNWDSGNPDETEPLAPGKFYTRNSPNMWSLASVDEKLGQVYLPLGNQMPDQWGGNRTPGAEKFSAGLVALDLNTGKLRWNYQFTHHDLWDMDVGSQPTLLDLKTADGVKPALIAPTKQGSLYVLDRRDGTPIVPIREVPAPQGAVEGDHTAPTQARSDLNLLRPPLTERDMWGSSPFDQMLCRIQFRSLRYEGQYTPPSEQGSLIYPGNVGVFNWGGVSVDPVRQILFTSPNYMAFVSQMVPRDKVPSGSKREGETSGVQPNTGAPYAVIMHPFMSPIGLPCQAPSWGDVAGIDLTTAKVVWQHKNGTSRDNTPVPIGLTVGVPSMGGSITTAGGVAFLSGTLDQYLRAYDVKDGKQLWQARLPAGGQATPMSYTGKDGRQYVLIVAGGHGSFGTRMGDYIIAYALPRQ”, the protein production entry is reported as “failed”.
For “MATGQDRVVALVDMDCFFVQVEQRQNPHLRNKPCAVVQYKSWKGGGIIAVSYEARAFGVTRSMWADDAKKLCPDLLLAQVRESRGKANLTKYREASVEVMEIMSRFAVIERASIDEAYVDLTSAVQERLQKLQGQPISADLLPSTYIEGLPQGPTTAEETVQKEGMRKQGLFQWLDSLQIDNLTSPDLQLTVGAVIVEEMRAAIERETGFQCSAGISHNKVLAKLACGLNKPNRQTLVSHGSVPQLFSQMPIRKIRSLGGKLGASVIEILGIEYMGELTQFTESQLQSHFGEKNGSWLYAMCRGIEHDPVKPRQLPKTIGCSKNFPGKTALATR”, the protein production result was “failed”.
The entry for “MAVLSMLGIIDAKPKVGYFYLGQYHASIGTSHFEKMTVSEIMGIPLTVHQKDSVYDVIVHIFMEDAGCAFILDDDDFLCGVVSRKDLLKISIGGGDLSKMPIGMVMTRMPHVTTVLENESLFAAADKLVSRKVDSLPVVRHDKQYPEKFKVIGKLSKTILASLFLEIRDY” is “failed”.
The entry for “MPYDWKRTETRQELRLWPHNSLPPRGAAGFVLLVFALGLLPLIAVLGSPLLWGLLPFLLLAVAGLWLAIEANYRQRRILEVLTLDPERAHLVRHNPRGAVQEWDCNRYWARATLHAHGGPVPHYVTLQGCGREVEIGAFLSEDERIALYDDLREMLSK” is “failed”; for “MKRFQKQILLRRILQMDYKQIAKEVIEALGGRENVNSVAHCATRLRVMVKDENKINKEKAENIEKVQGAFFNSGQYQMIFGTGTVNKIYDEVVAQGLPTASKDEQKAEAAKQGNWFQRAIRSFGDVFVPLLPAIVATGLFMGIRGAINNDTVLALFGTTSKAFAATDFYTYTVVLTDTAFAFFPALICWSAFNVFGGSPLLGLVLGLMMVNNALPNAWDVVSGAAKPIYFFDFIPVVGYQNSVLPAFFVGLIGAKFEQWVRKWVPDVLDLLLRPLVVFAVMSALALFIIGPVFHTVESYVLAGTEWILALPFGLAGLVLGGIHQIIVVTGVHHVFNLLEANLISNTGKDPLNAIITAAMTAQAGATLAVGVKTKDSKLKALAFPASLSAVLGITEPAIFGVNLRFGKPFIMGLIAGAAGGWLASILNLAGTGFGVTIVPGTLLYLNGQVLKYVIMVLVTLALGFALTWIFGYKEEEVEAQTEVVAEDIASAGSAPVALQAETIAAPLKGEVVALENVNDPVFSSGAMGKGAAIKPSGNRVVAPFDGEVQIAFPTGHAYGLKSDKGAEVLIHIGIDTVSLDGKGFDAKVQANQRVKKGDVLATFDSSVITEAGLDDTTMVIVTNTADYEDVSLVATGSVAEGGDFIAVK” it is “failed”.
